Test results from patent US20240010733A1.

Target: soluble CLEC2D antigen, ecto-domain (Q72-V191, H176C) with C-term Histidine tag (human) (UniProt Q9UHP7)
Assay: flow cytometry on CLEC2D-coated magnetic beads

Chain of UniProt Q9UHP7 (Q9UHP7 72-191 H176C limits assumed): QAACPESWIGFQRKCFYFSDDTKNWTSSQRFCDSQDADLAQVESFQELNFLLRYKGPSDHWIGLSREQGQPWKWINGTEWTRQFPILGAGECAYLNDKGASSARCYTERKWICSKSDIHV

With commercial P4500/anti-CLEC2D antibody the efficiency of conjugation (antigen-coated beads stained by the antibody) was over 90%.
